Values quoted from earlier work in article PMC10103170.

Molecular target: Ubiquitin (Homo sapiens) (UniProt P0CG48)

Sequence of ALIX V domain (Q8WUM4 360-702): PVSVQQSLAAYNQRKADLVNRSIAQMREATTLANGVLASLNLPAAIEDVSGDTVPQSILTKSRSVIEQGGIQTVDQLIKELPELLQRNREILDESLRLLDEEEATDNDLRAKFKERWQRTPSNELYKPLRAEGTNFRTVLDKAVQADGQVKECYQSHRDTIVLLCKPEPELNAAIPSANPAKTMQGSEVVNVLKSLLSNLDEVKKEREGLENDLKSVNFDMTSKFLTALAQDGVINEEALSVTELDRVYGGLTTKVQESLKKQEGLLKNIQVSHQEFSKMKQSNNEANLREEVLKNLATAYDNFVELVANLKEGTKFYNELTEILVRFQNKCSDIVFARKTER

- Kd: 120 µM
Substance: ALIX V domain (from UniProt Q8WUM4)
